Results as given in patent publication US12398179.
Non-standard residues stand in square brackets, D forms with d. No end group written: not given here. *: point of attachment. Biotin = O=C1N[C@H]2[C@H](CS[C@H]2CCCCC(=O)*)N1; βAla = NCCC(=O)O

Key:
[1] = biological target: EphA2 extracellular domain fused to the Fc portion of an antibody (EphA2 Fc); experiment: competition ELISA: inhibition of ephrin-A5 AP binding to immobilized EphA2 Fc; average ± SE (number of experiments)
[2] = biological target: EphA2 extracellular domain fused to the Fc portion of an antibody (EphA2 Fc); experiment: ELISA, inhibition of ephrin-A5 AP binding to immobilized EphA2 Fc; representative experiment; concentrations in nM
[3] = biological target: EphA2 extracellular domain fused to the Fc portion of an antibody (EphA2 Fc); experiment: competition ELISA: inhibition of ephrin-A5 AP binding to EphA2 Fc
[4] = biological target: EphA2 extracellular domain fused to the Fc portion of an antibody (EphA2 Fc); experiment: ELISA, inhibition of ephrin-A5 AP binding to immobilized EphA2 Fc; representative experiment

Sequence of EphA2 extracellular domain fused to the Fc portion of an antibody (EphA2 Fc) (P29317 whole entry, the tested form may be a part): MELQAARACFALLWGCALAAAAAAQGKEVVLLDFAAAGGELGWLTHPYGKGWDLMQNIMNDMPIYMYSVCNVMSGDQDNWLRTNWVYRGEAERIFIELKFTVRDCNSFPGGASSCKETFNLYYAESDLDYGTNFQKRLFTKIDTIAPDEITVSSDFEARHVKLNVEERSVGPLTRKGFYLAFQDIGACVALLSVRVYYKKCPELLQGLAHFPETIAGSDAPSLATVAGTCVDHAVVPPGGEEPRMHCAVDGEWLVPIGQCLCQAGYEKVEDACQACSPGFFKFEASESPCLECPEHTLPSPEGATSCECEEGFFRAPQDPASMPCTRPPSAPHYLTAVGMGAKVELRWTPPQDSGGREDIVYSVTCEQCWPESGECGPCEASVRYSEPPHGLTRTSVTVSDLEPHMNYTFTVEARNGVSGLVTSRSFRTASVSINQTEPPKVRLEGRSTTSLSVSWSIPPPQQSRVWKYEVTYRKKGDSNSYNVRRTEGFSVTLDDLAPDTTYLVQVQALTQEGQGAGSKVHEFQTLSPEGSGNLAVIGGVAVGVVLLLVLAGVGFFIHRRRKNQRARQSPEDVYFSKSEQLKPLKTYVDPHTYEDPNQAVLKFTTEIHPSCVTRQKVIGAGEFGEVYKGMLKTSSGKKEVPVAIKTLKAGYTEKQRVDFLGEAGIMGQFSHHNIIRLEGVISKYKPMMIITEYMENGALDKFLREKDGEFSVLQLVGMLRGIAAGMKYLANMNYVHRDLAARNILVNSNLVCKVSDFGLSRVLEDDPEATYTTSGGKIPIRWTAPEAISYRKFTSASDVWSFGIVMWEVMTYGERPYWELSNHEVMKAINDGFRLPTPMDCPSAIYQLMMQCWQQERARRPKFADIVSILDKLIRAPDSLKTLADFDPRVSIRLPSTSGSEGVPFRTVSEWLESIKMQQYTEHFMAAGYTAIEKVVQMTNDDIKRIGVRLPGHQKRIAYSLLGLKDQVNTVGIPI

Binder | IC50 [1] [nM] | other results
[βAla]WLAYPDSVPYSPK(Biotin) [βA-WLA-YSPK-bio] | 62 | –
[βAla]WLAYPDSVPYGSK(Biotin) [βA-WLA-YGSK-bio] | 400 | –
[βAla]WLAYPDSVPYR [βA-WLA-YR] | 390 | IC50 [2]: 360 nM
[βAla]WLAYPDSVPYGSGK(Biotin) [βA-WLA-YGSGK-bio] | 330 | –
[βAla]WLAYPDSVPYSK [βA-WLA-YSK] | 380 | –
WLAYPDSVPM-NH2 [WLAam] | 1500 | fold improvement in potency against YSA1-10am [3]: 2 fold; IC50 [2]: 1400 nM
[βAla]WLAYPDSVPM-NH2 [βA-WLAam] | 840 | fold increase in potency against WLAam [3]: 2 fold; IC50 [4]: 680 nM
[βAla]WLAYPDSVPYK(Biotin) [βA-WLA-YK-bio] | 730 | –
